Assay results published in US11046988B2, “Process for the modification of a glycoprotein using a β-(1,4)-N-acetylgalactosaminyl transferase or a mutant thereof” (Synaffix B.V., priority 2014, dated 2021).

Tested on: GlcNAc-Man5-GlcNAc-GlcNAc(Fuc)-substituted trastuzumab (formula 26)
Assay: Glycosyltransfer of GalNAz to GlcNAc-Man5-GlcNAc-GlcNAc(Fuc)-substituted trastuzumab, MS analysis
Format: biochemical
Conditions: UDP-GalNAz 0.5 mM, CeGalNAcT 0.1 mg/mL, 10 mM MnCl2, pH 8.0, 16 hours, 30° C.
Method: Trastuzumab transiently expressed in the presence of swainsonine as described in Example 18 (10 mg/mL) was incubated with neuraminidase (0.5 mU/mg IgG) from Vibrio cholerae (commercially available from Sigma-aldrich) in 100 mM sodium acetate pH 6.0 and 2 mM CaCl2 for 16 hrs, which led to complete removal of the sialic acid (two major heavy chain products of 50712 and 50874 Da which correspond to approximately 20 and 70% of the total heavy chain products). When the same reaction was performed in the presence of β(1,4)-galactosidase (3 mU/mg IgG) from Streptococcus pneumoniae (commercially available from Calbiochem), a single major heavy chain product was observed corresponding to trastuzumab with a GlcNAc-Man5-GlcNAc-GlcNAc(Fuc)-substituted heavy chain (c=d=0, 50712 Da, ±90% of total heavy chain product, and minor heavy chain products between 50700 and 50900 Da).
A solution of 50 μg (modified) IgG, 1 M Tris-HCl pH 8.0, 1 mM EDTA and 30 mM DTT with a total volume of approximately 70 μL was incubated for 20 minutes at 37° C. to reduce the disulfide bridges allowing to analyze both light and heavy chain. If present, azide-functionalities are reduced to amines under these conditions. […] The reduced IgG was analyzed by electrospray ionization time-of-flight (ESI-TOF) on a JEOL AccuTOF. […]

In the case of “CeGalNAcT: truncated Caenorhabditis elegans β-(1,4)-GalNAcT, amino acids 30-383 of SEQ ID NO: 2 (SEQ ID NO: 6)”, the “conversion into GalNAz-GlcNAc-Man5-GlcNAc-GlcNAc(Fuc)-substituted trastuzumab” value is reported as “complete conversion” and the “major heavy chain product (GalNAz-GlcNAc-Man5-GlcNAc-GlcNAc(Fuc)-substituted)” value is reported as ~90 % of the total heavy chain products.
